B1: NLV3 TCR beta chain (CDR3β only) (parent)
chain: ASSPTGGSPSPLH
partner: MLVPMVATV

One test covers variants of B1. Description: T-Switch: Jurkat TCRβ−/− cells expressing a CDR3 saturation-mutagenesis library, stained with two peptide-HLA-A*02:01 tetramers (original and novel peptide) plus anti-CD3, FACS-sorted into four gates, gDNA sequenced. To be noted: with HLA-A*02:01 with peptide … (NLV 3-1, the original bait), tetramers 1 µg/mL, 30 min on ice, DP and SW gates expanded about 10 days between rounds ('two to three rounds of selection' in the Methods), gate SP: higher = more of the variant in the gate that binds the original peptide and not the novel one = retained original binding. Fold enrichment of the CDR3 variant in one FACS gate of a two-tetra, unresolved parent, parent is a CDR3 fragment, scale: fold enrichment, numbering: sequential-on-construct, sequence ….
On to […] (CDR3 as printed); T5Q derived by comparing it with the table's wild-type CDR3 ASSPTGGSPSPLH, for which the enrichment came out at 0.

Regarding […] (CDR3 as printed); T5F derived by comparing it with the table's wild-type CDR3 ASSPTGGSPSPLH, the enrichment was found to be 12.8.

Regarding […] (CDR3 as printed); T5M derived by comparing it with the table's wild-type CDR3 ASSPTGGSPSPLH, the enrichment was determined as 7.93.

On to […] (CDR3 as printed); P4F derived by comparing it with the table's wild-type CDR3 ASSPTGGSPSPLH, for which the enrichment is 1.88.

[…] (CDR3 as printed); L12K derived by comparing it with the table's wild-type CDR3 ASSPTGGSPSPLH: the enrichment was 0.

With […] (CDR3 as printed); P9A derived by comparing it with the table's wild-type CDR3 ASSPTGGSPSPLH, the enrichment is 4.97.

On to […] (CDR3 as printed); S8Q derived by comparing it with the table's wild-type CDR3 ASSPTGGSPSPLH, for which the enrichment worked out at 0.

For the variant […] (CDR3 as printed); P11K derived by comparing it with the table's wild-type CDR3 ASSPTGGSPSPLH, the enrichment came out at 8.18.

With […] (CDR3 as printed); S2P derived by comparing it with the table's wild-type CDR3 ASSPTGGSPSPLH, the enrichment worked out at 0.

Consider […] (CDR3 as printed); L12Y derived by comparing it with the table's wild-type CDR3 ASSPTGGSPSPLH, for which the enrichment turned out to be 0.

Take […] (CDR3 as printed); P4G derived by comparing it with the table's wild-type CDR3 ASSPTGGSPSPLH: the enrichment was found to be 0.

On to […] (CDR3 as printed); S10K derived by comparing it with the table's wild-type CDR3 ASSPTGGSPSPLH, for which the enrichment stood at 0.

In the case of […] (CDR3 as printed); P9C derived by comparing it with the table's wild-type CDR3 ASSPTGGSPSPLH, the enrichment worked out at 0.

In the case of […] (CDR3 as printed); S8R derived by comparing it with the table's wild-type CDR3 ASSPTGGSPSPLH, the enrichment worked out at 0.

On to […] (CDR3 as printed); S10E derived by comparing it with the table's wild-type CDR3 ASSPTGGSPSPLH, for which the enrichment is 5.53.

[…] (CDR3 as printed); P9N derived by comparing it with the table's wild-type CDR3 ASSPTGGSPSPLH: the enrichment is 0.

On to […] (CDR3 as printed); S8C derived by comparing it with the table's wild-type CDR3 ASSPTGGSPSPLH, for which the enrichment worked out at 0.

On to […] (CDR3 as printed); P9Y derived by comparing it with the table's wild-type CDR3 ASSPTGGSPSPLH, for which the enrichment came out at 0.

Turning to […] (CDR3 as printed); S8L derived by comparing it with the table's wild-type CDR3 ASSPTGGSPSPLH, the enrichment amounted to 0.

Take […] (CDR3 as printed); P4S derived by comparing it with the table's wild-type CDR3 ASSPTGGSPSPLH: the enrichment worked out at 0.723.

Turning to […] (CDR3 as printed); S8H derived by comparing it with the table's wild-type CDR3 ASSPTGGSPSPLH, the enrichment turned out to be 0.

As for […] (CDR3 as printed); T5K derived by comparing it with the table's wild-type CDR3 ASSPTGGSPSPLH, the enrichment was 0.

With […] (CDR3 as printed); P11C derived by comparing it with the table's wild-type CDR3 ASSPTGGSPSPLH, the enrichment is 6.3.

On to […] (CDR3 as printed); S10M derived by comparing it with the table's wild-type CDR3 ASSPTGGSPSPLH, for which the enrichment was determined as 9.51.

As for […] (CDR3 as printed); P4N derived by comparing it with the table's wild-type CDR3 ASSPTGGSPSPLH, the enrichment came out at 1.25.

[…] (CDR3 as printed); S10T derived by comparing it with the table's wild-type CDR3 ASSPTGGSPSPLH: the enrichment is 0.

As to […] (CDR3 as printed); S10H derived by comparing it with the table's wild-type CDR3 ASSPTGGSPSPLH, the enrichment stood at 0.

[…] (CDR3 as printed); S8F derived by comparing it with the table's wild-type CDR3 ASSPTGGSPSPLH: the enrichment was 0.

For the variant […] (CDR3 as printed); T5W derived by comparing it with the table's wild-type CDR3 ASSPTGGSPSPLH, the enrichment came to 15.1.

Take […] (CDR3 as printed); P9L derived by comparing it with the table's wild-type CDR3 ASSPTGGSPSPLH: the enrichment came to 1.13.

Consider […] (CDR3 as printed); P11F derived by comparing it with the table's wild-type CDR3 ASSPTGGSPSPLH, for which the enrichment amounted to 0.

For the variant […] (CDR3 as printed); S10A derived by comparing it with the table's wild-type CDR3 ASSPTGGSPSPLH, the enrichment is 10.5.

Turning to […] (CDR3 as printed); P4K derived by comparing it with the table's wild-type CDR3 ASSPTGGSPSPLH, the enrichment is 0.

For the variant […] (CDR3 as printed); P9K derived by comparing it with the table's wild-type CDR3 ASSPTGGSPSPLH, the enrichment came to 0.

Turning to […] (CDR3 as printed); L12H derived by comparing it with the table's wild-type CDR3 ASSPTGGSPSPLH, the enrichment was 0.

Take […] (CDR3 as printed); S3R derived by comparing it with the table's wild-type CDR3 ASSPTGGSPSPLH: the enrichment is 0.

[…] (CDR3 as printed); P4A derived by comparing it with the table's wild-type CDR3 ASSPTGGSPSPLH: the enrichment is 1.98.

On to […] (CDR3 as printed); S2H derived by comparing it with the table's wild-type CDR3 ASSPTGGSPSPLH, for which the enrichment was 0.863.

For […] (CDR3 as printed); S10W derived by comparing it with the table's wild-type CDR3 ASSPTGGSPSPLH, the enrichment was 0.

Regarding […] (CDR3 as printed); S2F derived by comparing it with the table's wild-type CDR3 ASSPTGGSPSPLH, the enrichment is 3.1.

As for […] (CDR3 as printed); S3I derived by comparing it with the table's wild-type CDR3 ASSPTGGSPSPLH, the enrichment was found to be 0.

For the variant […] (CDR3 as printed); S8V derived by comparing it with the table's wild-type CDR3 ASSPTGGSPSPLH, the enrichment is 1.71.

With […] (CDR3 as printed); S10P derived by comparing it with the table's wild-type CDR3 ASSPTGGSPSPLH, the enrichment was 0.

On to […] (CDR3 as printed); S3Y derived by comparing it with the table's wild-type CDR3 ASSPTGGSPSPLH, for which the enrichment was 0.

[…] (CDR3 as printed); P11M derived by comparing it with the table's wild-type CDR3 ASSPTGGSPSPLH: the enrichment was found to be 7.79.

In the case of […] (CDR3 as printed); S2I derived by comparing it with the table's wild-type CDR3 ASSPTGGSPSPLH, the enrichment was found to be 0.

Take […] (CDR3 as printed); S3K derived by comparing it with the table's wild-type CDR3 ASSPTGGSPSPLH: the enrichment turned out to be 0.

On to […] (CDR3 as printed); L12P derived by comparing it with the table's wild-type CDR3 ASSPTGGSPSPLH, for which the enrichment was 0.

Take […] (CDR3 as printed); S8M derived by comparing it with the table's wild-type CDR3 ASSPTGGSPSPLH: the enrichment worked out at 0.

With […] (CDR3 as printed); P9S derived by comparing it with the table's wild-type CDR3 ASSPTGGSPSPLH, the enrichment amounted to 0.568.

Turning to […] (CDR3 as printed); P4C derived by comparing it with the table's wild-type CDR3 ASSPTGGSPSPLH, the enrichment stood at 0.

For […] (CDR3 as printed); P4W derived by comparing it with the table's wild-type CDR3 ASSPTGGSPSPLH, the enrichment amounted to 0.

For […] (CDR3 as printed); T5H derived by comparing it with the table's wild-type CDR3 ASSPTGGSPSPLH, the enrichment was found to be 1.12.

With […] (CDR3 as printed); S3A derived by comparing it with the table's wild-type CDR3 ASSPTGGSPSPLH, the enrichment was determined as 9.82.

In the case of […] (CDR3 as printed); P9M derived by comparing it with the table's wild-type CDR3 ASSPTGGSPSPLH, the enrichment was found to be 0.

On to […] (CDR3 as printed); S2K derived by comparing it with the table's wild-type CDR3 ASSPTGGSPSPLH, for which the enrichment came out at 0.

Take […] (CDR3 as printed); P11H derived by comparing it with the table's wild-type CDR3 ASSPTGGSPSPLH: the enrichment was found to be 0.

Take […] (CDR3 as printed); P9W derived by comparing it with the table's wild-type CDR3 ASSPTGGSPSPLH: the enrichment amounted to 0.

As for […] (CDR3 as printed); T5D derived by comparing it with the table's wild-type CDR3 ASSPTGGSPSPLH, the enrichment came out at 0.

Turning to […] (CDR3 as printed); L12I derived by comparing it with the table's wild-type CDR3 ASSPTGGSPSPLH, the enrichment was 1.14.

Turning to […] (CDR3 as printed); P11S derived by comparing it with the table's wild-type CDR3 ASSPTGGSPSPLH, the enrichment was 2.02.

On to […] (CDR3 as printed); T5S derived by comparing it with the table's wild-type CDR3 ASSPTGGSPSPLH, for which the enrichment came out at 0.

As to […] (CDR3 as printed); T5G derived by comparing it with the table's wild-type CDR3 ASSPTGGSPSPLH, the enrichment came out at 0.

Take […] (CDR3 as printed); P4Q derived by comparing it with the table's wild-type CDR3 ASSPTGGSPSPLH: the enrichment was 3.21.

Regarding […] (CDR3 as printed); S2V derived by comparing it with the table's wild-type CDR3 ASSPTGGSPSPLH, the enrichment came out at 1.18.

For […] (CDR3 as printed); S3W derived by comparing it with the table's wild-type CDR3 ASSPTGGSPSPLH, the enrichment worked out at 0.

Consider […] (CDR3 as printed); P4D derived by comparing it with the table's wild-type CDR3 ASSPTGGSPSPLH, for which the enrichment amounted to 0.

Turning to […] (CDR3 as printed); T5L derived by comparing it with the table's wild-type CDR3 ASSPTGGSPSPLH, the enrichment amounted to 9.97.

Consider […] (CDR3 as printed); S3T derived by comparing it with the table's wild-type CDR3 ASSPTGGSPSPLH, for which the enrichment came to 10.9.

Regarding […] (CDR3 as printed); P11Y derived by comparing it with the table's wild-type CDR3 ASSPTGGSPSPLH, the enrichment was 1.78.

[…] (CDR3 as printed); P11L derived by comparing it with the table's wild-type CDR3 ASSPTGGSPSPLH: the enrichment was 2.19.

Regarding […] (CDR3 as printed); S3N derived by comparing it with the table's wild-type CDR3 ASSPTGGSPSPLH, the enrichment amounted to 4.09.

[…] (CDR3 as printed); S3M derived by comparing it with the table's wild-type CDR3 ASSPTGGSPSPLH: the enrichment stood at 0.

Consider […] (CDR3 as printed); S3E derived by comparing it with the table's wild-type CDR3 ASSPTGGSPSPLH, for which the enrichment is 0.

[…] (CDR3 as printed); S2G derived by comparing it with the table's wild-type CDR3 ASSPTGGSPSPLH: the enrichment was 1.01.

On to […] (CDR3 as printed); S8E derived by comparing it with the table's wild-type CDR3 ASSPTGGSPSPLH, for which the enrichment stood at 0.

In the case of […] (CDR3 as printed); S2Y derived by comparing it with the table's wild-type CDR3 ASSPTGGSPSPLH, the enrichment was found to be 0.

As to […] (CDR3 as printed); S10D derived by comparing it with the table's wild-type CDR3 ASSPTGGSPSPLH, the enrichment came out at 0.543.

On to […] (CDR3 as printed); P9F derived by comparing it with the table's wild-type CDR3 ASSPTGGSPSPLH, for which the enrichment is 0.

Turning to […] (CDR3 as printed); P4M derived by comparing it with the table's wild-type CDR3 ASSPTGGSPSPLH, the enrichment was 4.15.

Regarding […] (CDR3 as printed); S2C derived by comparing it with the table's wild-type CDR3 ASSPTGGSPSPLH, the enrichment worked out at 5.16.

As to […] (CDR3 as printed); S3D derived by comparing it with the table's wild-type CDR3 ASSPTGGSPSPLH, the enrichment is 3.32.

In the case of […] (CDR3 as printed); P9T derived by comparing it with the table's wild-type CDR3 ASSPTGGSPSPLH, the enrichment amounted to 0.619.

The test is the same for the next values; noted with them: with HLA-A*02:01 with peptide … (NLV 3-1, the original bait), tetramers 1 µg/mL, 30 min on ice, DP and SW gates expanded about 10 days between rounds ('two to three rounds of selection' in the Methods), gate SP: higher = more of the variant in the gate that binds the original peptide and not the novel one = retained original binding. Fold enrichment of the CDR3 variant in one FACS gate of a two-tetra, unresolved parent, parent is a CDR3 fragment, zero in all gates, scale: fold enrichment, numbering: ….
As to […] (CDR3 as printed); G7P derived by comparing it with the table's wild-type CDR3 ASSPTGGSPSPLH, the enrichment was found to be 0.

As to […] (CDR3 as printed); S2L derived by comparing it with the table's wild-type CDR3 ASSPTGGSPSPLH, the enrichment was 0.

The values above are taken from article PMC13397619.
